{"source": "the DeepSol protein solubility set", "data": [{"test": "soluble on expression in E. coli; label from the status in PepcDB or PDB records", "values": [{"sequence": "MSSVGAGFRLARAGWVLVREGVIAALPGEELSGLPKFGWQLARLFTRRRALAYQRSDRLAKAVVRLGPSYVKLGQFLATRPDVVGNDMALDLAMLQDKMHTFPKAEAVAAIEASLGRKVRDLYAEFGLEHHHHHH", "soluble on expression in E. coli": "not soluble"}, {"sequence": "MSSVVNAAYAEYNGKEKGDQEDPRVLIPQLCRLFYELGWVTGTGGGISLRHGEHIYIAPSGVQKERIQPEDLFVCDIDEKDISCPPPQKKLKKSQCTPPFMNAYTMRGAQAVIHTHSKSAVMATLLFPGKEFRITHQEMIKGIRKGNSGTNFRYDDTLVVPIIENTPEEKDLKERMARAMDMYPDSCAVLVRRHGVYVWGETWEKAKTMCECYDYLFDIAVQMKQSGLDPSAFPTEEKGIV", "soluble on expression in E. coli": "not soluble"}, {"sequence": "MSSYKNILVAIDGSYESELAFEKGVSVALRNDANLLLTHVVDTRALQSVATFDAYIYEKLEQEAHSVLDDYENQARERGLEKVRQIIEFGNPKPLLATEIPEREHVDLIMLGATGLNAFERLLIGSSSEYILRHAKVDLLVVRDPEKTL", "soluble on expression in E. coli": "not soluble"}, {"sequence": "MSTAYEVQCRGLPWEATEQELRDFFGNNGIESLEIPRRNGRTSGDAKVVFTNEEDYNNALKKDREHLGSRYIEVFPAGGAPTRRGDRGERGDRGDRDHYRSRGAPPRDRYSDRGGPRSSGPDSIVRLRGLPFSVTSRDISDFLAPLPIVRDGILLPDQQRARPGGEAYVCFETMESVQIAKQRHMKNIGHRYIEVFEATHRDLSRFAEENDLRVPRFGPPPFASAPQTAPRGAYDPYSQPTDPYRNATDYRRAAEPEDPYARSRAPSVQDYGVRASYDPYTQPAAPVSSYPSQQQPSAGYYDNYAPKTAYESYGRERGPDPRDVRDPRDSRMPDPRDSRALSDPYAAESRYSEYGYESREPYWRGGSGGPPSIGGGVGGGGAPLAPTGRDPYSVGESWANGAGGPGGPPPVSSDRDRYGSGGYASEPYAQREAGGAMRRSEYGRPDDRYSKPEPYGYSRDRDYGAPQNQHFVLRMRGVPFRASEADVYDFFHPIRPNQVELLRDHQFQRPSGDARVIFYNRKDYDDALMKDKQYMGERYIEMIPDNGRY", "soluble on expression in E. coli": "not soluble"}, {"sequence": "MSTEKEKMIAGELYRSADETLSRDRLRARQLIHRYNHSLAEEHTLRQQILADLFGQVTEAYIEPTFRCDYGYNIFLGNNFFANFDCVMLDVCPIRIGDNCMLAPGVHIYTATHPIDPVARNSGAELGKPVTIGNNVWIGGRAVINPGVTIGDNVVVASGAVVTKDVPDNVVVGGNPARIIKKL", "soluble on expression in E. coli": "not soluble"}, {"sequence": "MSTELIAAVEAADSAEGLVRAVAALSAARTDAAIPTLISVLAFNNPGAAVVAVDGLIQLGSPAAQAILNNLDDYNYGARAWALRALAGIGEPAALPLLLSAAREDFSLSVRRAATYGLGRVRWADLSESDRLAQQQQCYETLKLCLQYDPEWVVRYAAAAALETLAPAATQLQSAIAETLNRQAHSDEERAVQARSRLAERRLAGGVLEHHHHHH", "soluble on expression in E. coli": "soluble"}, {"sequence": "MSTGATIVIDLGKTLSKVSLWDLDGRMLDRQVRPSIPLEIDGIRRLDAPDTGRWLLDVLSRYADHPVTTIVPVGHGAGIAALTDGRLAFPPLDYEQSIPEAVMADYRSQRDPFARTGSPALPDGLNIGSQLWWLDQLHPDVMANATLLPWAQYWAWFLTGRAVSEVTSLGCHSDLWDPQDGDFSPMAKRLGWAARFAPIVRAGDTVGALLPAIAERTGLSPDVQVLAGLHDSNAALLAARLEHHHHHH", "soluble on expression in E. coli": "not soluble"}, {"sequence": "MSTGITYDEDRKTQLIAQYESVREVVNAEAKNVHVNENASKILLLVVSKLKPASDIQILYDHGVREFGENYVQELIEKAKLLPDDIKWHFIGGLQTNKCKDLAKVPNLYSVETIDSLKKAKKLNESRAKFQPDCNPILCNVQINTSHEDQKSGLNNEAEIFEVIDFFLSEECKYIKLNGLMTIGSWNVSHEDSKENRDFATLVEWKKKIDAKFGTSLKLSMGMSADFREAIRQGTAEVRIGTDIFGARPPKNEARII", "soluble on expression in E. coli": "soluble"}, {"sequence": "MSTIELNKRQEHILQIVKENGPITGEHIAEKLNLTRATLRPDLAILTMSGFLEARPRVGYFYTGKTGTQLLADKLKKLQVKDFQSIPVVIHENVSVYDAICTMFLEDVGTLFVVDRDAVLVGVLSRKDLLRASIGQQELTSVPVHIIMTRMPNITVCRREDYVMDIAKHLIEKQIDALPVIKDTDKGFEVIGRVTKTNMTKILVSLSENEILAAAAAALEHHHHHH", "soluble on expression in E. coli": "soluble"}, {"sequence": "MSTLADQALHNNNVGPIIRAGDLVEPVIETAEIDNPGKEITVEDRRAYVRIAAEGELILTRKTLEEQLGRPFNMQELEINLASFAGQIQADEDQIRFYFDKTM", "soluble on expression in E. coli": "soluble"}, {"sequence": "MSTLLAILFLLPFYTFSLNKKPEEVLKGLYPSAEIEVEDIILTEEQVKEVEKLSGTKLNTRFVTFYIVKKDGKVLAYGYVDIHRVRTKPEAVLYVISPKGKIELIEVLAFHEPLEYLPPKNWLKLFEGKDINAPLRVKKDIPNVTGATLTARAITKNAKKVLALWQVLFGGKE", "soluble on expression in E. coli": "not soluble"}, {"sequence": "MSTLPPCPQCNSEYTYEDGALLVCPECAHEWSPNEAATASDDGKVIKDSVGNVLQDGDTITVIKDLKVKGSSLVVKVGTKVKNIRLVDGDHDIDCKIDGIGAMKLKSEFVRKV", "soluble on expression in E. coli": "not soluble"}, {"sequence": "MSTPHTPKPGPRPGAVPGPRPGAHAARKVVAPNVSAMNQARAFGRVDDDGTVYLIRGGETKKIGSWQAGTPEEGLQHYIHRFEDLATEVALLESRLKSHPNDASHIKEKAGEIRDGLDDAAIIGDLDSLEKRLNSIIDGADSAGEKARELKQQLQEKAIEQKQKLVAEAEEIAEKSTDWKVAGDRIREILDEWKTIKGIDRKTDDELWKLYSRARDSFNRRRGSHFAELDRGRAAARRIKEDLVEKANILKESTDWNDTAHAFKELMNEWKAAGRAPRDVDDKLWAAFKGAQDYFFNARNAVNDQRDREFAANAEAKDALIDEYTPLIDPAQGLESAREKLRELQEKWEAIGYVPRNRVREYEEKIANLEKRVTEAADAQWRRTDPAAQARAAQFISKVEEFTAQAAEAEVKGNTKKAEQLRAQAQQWQEWADAAINAVENR", "soluble on expression in E. coli": "not soluble"}, {"sequence": "MSTPSVHCLKPSPLHLPSGIPGSPGRQRRHTLPANEFRCLTPEDAAGVFEIEREAFISVSGNCPLNLDEVQHFLTLCPELSLGWFVEGRLVAFIIGSLWDEERLTQESLALHRPRGHSAHLHALAVHRSFRQQGKGSVLLWRYLHHVGAQPAVRRAVLMCEDALVPFYQRFGFHPAGPCAIVVGSLTFTEMHCSLRGHAALRRNSDR", "soluble on expression in E. coli": "soluble"}, {"sequence": "MSTPTPKVGFVSLGCPKALVDSERILTQLRMEGYEVVPTYEDADVVVVNTCGFIDSAKAESLEVIGEAIAENGKVIVTGCMGVEEHAIRDVHPSVLAVTGPQQYEQVVTAVHEVVPPKTEHNPLVDLVPPQGVKLTPRHYAYLKISEGCNHSCSFCIIPSMRGKLVSRPVGDVLSEAERLVKAGVKELLVISQDTSAYGVDLKYKTDFWNGQPVKTRMKELCEALSSMGVWVRLHYVYPYPNVDDVIPLMAAGKLLPYLDIPFQHASPKVLKAMKRPAFEDKTLARIKQWREICPELTIRSTFIVGFPGETEEDFQYLLDWLTEAQLDRVGCFQYSPVEGAPANELGLEPVPDEVKQDRWERFMAHQQAISAARLQLKVGKEIEVLIDEVDEQGAVGRSWADAPEIDGNVFVDSDELKPGDKVRVRITDADEYDLWAELVLEHHHHHH", "soluble on expression in E. coli": "soluble"}, {"sequence": "MSTQNEESEESARRPQSISHLARVEVEEPARKMRLMFGEKQVVFIRSDGLRSRVVRENMKKKLSQEIEKKEDLDTDSPNLTKVIDDVASGATGSSSLPSSSTESYSTSSSSSSSSSDLNSAYSSTSEPQATSSSAPESSTNSSASPEIKGNRNYHPPREFHGASTMVSHKRRWTYQTACDINAAEQSGDSEMYYIAHPLLPMPRGSGRNEVSTATRMNYAGQQIDNRKFRGQSKAVNQFANTESVTCEKCGMRYFFESIQMQERISYLLPPNEEDLPIALFECPVCKITTKVK", "soluble on expression in E. coli": "not soluble"}, {"sequence": "MSTRNSRSELEKTAVQLFRKLGTRTVLFHQAAAQALGLFPTDLKSADILNEAGPMTAGELGKKTGLSTGSVTALVDRLEKAGVCGSWKRTPNDRRRVVIVPLTASKKHIKDLFRPLSESTMDLCREYTEEELELIFSFVGKAADIMEEELERLKQ", "soluble on expression in E. coli": "not soluble"}, {"sequence": "MSTRTEAVKAYLLDLQDRICTALEQEDGNAHFVEDAWTRPAGGGGRTRVVENGAVIEKGGVNFSHVFGSNLPPSASAHRPELAGRGFEALGVSLVIHPHSPHVPTSHANVRFFIAEKEGEEPVWWFGGGFDLTPYYGVEEDCVHWHRVAERACAPFGDDVYPRYKAWCDSYFHLKHRDEPRGIGGLFFDDVNQWDFDTSFAFIRAIGDAFINAYLPIVRRRKAAAYTVQQREFQEFRRGRYVEFNLVYDRGTLFGLQSGGRTESILMSLPPQVRWGYDWKAAPGSEEARLTDYFLTDRDWLADNAAALEHHHHHH", "soluble on expression in E. coli": "not soluble"}, {"sequence": "MSTTIRFLRIVTSRAMSSSWSCNKCTFLNSASQKLNCMICLAPVSLPSLSPPPPSLSISANDEAKWACKACTFLNTYKNSICDVCGTRSPTSSLLGFQDLTDSGLESNDADSSVGSVFFPLRRCIKRKAMDDDVVEVDGASVVCSESQGVMKKNKEIETKGVASDSGTPLTCLKILSYNVWFREDLELNLRMRAIGHLIQLHSPHLICFQEVTPEIYDIFRKSNWWKAYSCSVSVDVAVSRGYYCMLLSKLGVKSFSSKSFGNSIMGRELSIAEVEVPGRKPLVFATSHLESPCPGPPKWDQMFSRERVEQAKEAIEILRPNANVIFGGDMNWCDKLDGKFPLPDKWVDVWEVLKPGDLGFTYDTKANPMLSGNRALQKRLDRILCRLDDYKLGGIEMVGKEAIPGLSYVKEKKVRGDIKKLELPVLPSDHFGLLVTLSPK", "soluble on expression in E. coli": "soluble"}, {"sequence": "MSTVLGTFKRMNEGWTQWPSYGHAFGVRLHKLRRLRGLTQDGLAEIANLSRNQISNLERNENSATKSSDPTMSTIYRLARALHVPPAALMPAVGDYVTDICQDTGHELPIDIAWPTSSQDTQKFSIQYRYRYWDEQSPLFDDEDWDDDHADDPDFGIAVMPETSDNNDADTTKGGDDTEDRGDVDKRDDDPLA", "soluble on expression in E. coli": "not soluble"}, {"sequence": "MSVAIDHDQTAKWDWPFQKGDGVVKVLDYEDHFEVGLEAHNFLPNEIDVKNIGEFLEIHMAHTTKDDKFGSITRSITRCYRLPKGTDPATIKSKLDGSGILHISGNKKK", "soluble on expression in E. coli": "not soluble"}, {"sequence": "MSVASNRDAVVTARRRFFGEGRSVDGMLAAPILRSWQRCAGQGLDASRSPLVEPPTARELREFQERHDRLGRLARPELNALQGDARLTGSVVILTDAAGVVLDMIGSDEFAGRAAQVALRPGVSWSEADTGTNAIGTALVERQPIAVHGAEHFFERHRILACAAAPLIDPRGVVAGALDMTGPAAIRHVHALGLMRLAAEQIEHRFFTEGFEHCTMLRLHTDRALLGTPREGVLAFADGVLVGANRHGLDLMNLDWPALDLARLETLLPGVRPSDQIQMLRGPRGTRLWGRLVDPLRRSPRAPAASMPAAVPAAPAGEVEPILDAEMMAQLSRTVRLVEAGIPVLLLGETGSGKDVFARRVHAESARRNKPFVPVNCAALPEGLIESELFGYEAGAFTGARRQGAPGLLRQADGGVLFLDEIGDMPLSLQSRLLRVLQDKQISPLGGGRPVPVDFALICATHQPLGTLLAAGAFRQDLYFRIAQYVVERPPVRHHPDRLALVRTLWRQLGGEDAGVQLSAEVERVLAAYNWPGNYRQLVGTLRALLVLGEPGHPVEVAALPAEITAAAGAVESQVSEMLPGTSLAEQTRSVLQAALDASGGNVSRAARRLGIDRSTYYRRLLKDKDRGR", "soluble on expression in E. coli": "not soluble"}, {"sequence": "MSVIDIHCHTAGVGAGGSGCFISTRLRESWRYRFYLASFGVTDAELEREGDGLVLRRLAERLAVSTRVQAAVVLALDGAIDSRGNLDQTRTELFIPNDFLSGQCRRYPNLLFGASVNPLRPDALDRLDAAAAASAVLVKWLPSIQGTDPADRRLVPFYRRLAELGLPLLTHTGEEQSFTRADNSLSDPNRLRLPLDEGVTVIAAHCATSGRSEGQRNRHRLLALFAAYPNLHADISSLTQVNRLGHLQWVLKHRELHERLLYGTDMPLPATALTSPWFHLFSLGPFAARRLAAIRNPWDRDVALKLALGMPEQILHNAAGLLRLALEHHHHHH", "soluble on expression in E. coli": "not soluble"}]}]}
